Several values for one entry are separate records, joined by “and”; a condition that tells them apart may be missing. Equal values may be shown once. Marks after values point to notes of the source that are not given here.
How the values were obtained:
[1] = test system: MCF7 human breast cancer cells; experiment: Curcumin uptake in MCF7 cells by fluorescence microscopy; type: cell-based; details: complexed with curcumin
Procedure: MCF7 human breast cancer cells were obtained from ATCC and maintained at 37° C., 5% CO2 as monolayer cultures in Dulbecco's modified Eagle's medium (DMEM with high glucose containing phenol red) supplemented with 10% (v/v) fetal bovine serum (FBS), gentamicin (50 μg/mL), 100 U penicillin/100 μg/mL streptomycin. Because the loading capacities of curcumin for P•GNP nanocomposites are much larger than those of the proteins in the absence of GNP we prepared two corresponding curcumin controls that represented the bound curcumin levels in P•G NPs and protein polymers alone (Table 2). To avoid any uptake of unbound curcumin by the cells directly, we limited the curcumin amount that is equivalent to the loading capacity of 26 μM of protein samples in 50 mM sodium phosphate buffer, pH 7.4 and allowed to bind for 2 hours at room temperature prior to cell culture studies.
Multiple sets of experiments were performed to record curcumin uptake by image acquisition using FITC filter (Em: 520 nm) under fluorescence microscopy and direct measurement of curcumin uptake in cell extractions. Cells were grown directly on 24-well culture plates (8×10^4 cells/well) for cell extraction or on cover slips for microscopy. After 24 hours of cell plating, cells were treated for 4 or 24 hours with different combination of proteins with or without GNP and/or curcumin. For all the treatments, the total volume of samples with DMEM in 24-well plates was kept constant at 300 μL with proteins prepared at 10 μM concentrations. The ratio of sample amount to number of cells was also kept constant. The results are representative of two such independent sets of experiments.
For fluorescent imaging of curcumin uptake, cells on coverslips were fixed with 300 μL 4% paraformaldehyde solution in DPBS for 20 minutes at room temperature on a plate rocker. […] Cells were viewed using fluorescence microscope IX71 (Olympus) using DAPI (for cell nuclei) and FITC (for curcumin uptake) at 60× magnification while keeping the exposure time for the FITC images constant at 200 milliseconds.

[2] = test system: MCF7 human breast cancer cells; experiment: MTS cell viability assay; details: absorbance at 490 nm
Procedure: (§1) Cell viability measurements were carried out using a CellTiter 96® Aqueous One solution kit (Promega) in a 96-well plate, seeded 1×10^4 cells/well. After 24 hours, the cells were treated for 4 hours or 24 hours with protein polymers and P•G NPs with and without curcumin along with control treatments of curcumin alone and media alone. After the treatment periods, 20 μL [3-(4,5-dimethylthiazol-2-yl)-5-(3-carboxymethoxyphenyl)-2-(4-sulfophenyl)-2H-tetrazolium (MTS) was added to each well, followed by incubation at 37° C. for 3 hours. The plate was centrifuged for 3 minutes at 2500 rpm and then subjected to absorbance measurements at 490 nm (Tables 3 and 4).

[3] = Curcumin loading capacity (small molecule loading); type: physicochemical; details: ratio of curcumin to protein or P•G NP; 2 hours incubation at room temperature
Procedure: Curcumin (6.5 nmol final concentration from 3 mM stock solution in HPLC grade methanol) was incubated with 1.3 nmol of CE1-His6, E1C-His6, CE1-His6•GNP and E1C-His6•GNP at room temperature for 2 hours and loaded onto Bio-Rad Spin6 columns packed with Sephadex G-25 medium beads 0.5 cm high. Bound protein polymer•curcumin complexes (in the presence or absence of GNP) were eluted by size, washed 3 times in 50 μL sodium phosphate buffer, followed by centrifugation for 5 min at 14000 rpm. The beads containing unbound curcumin were collected separately and resuspended back to buffer for solvent extraction. Both bound and unbound curcumin were extracted by adding 150 μL ethyl acetate and quantitatively determined by measuring absorbance at 416 nm. Absorbance was measured in a Hellma 105.201-QS type cuvette (10 mm light path, 100 μL sample) on SpectraMax M2. This binding study was performed on at least three different protein sample preparations to calculate the average loading capacities with errors represented as the standard deviation of the three trials.

[4] = test system: MCF7 human breast cancer cells
Procedure: as §1

[5] = protein polymer without GNP; data from Haghpanah et al., Mol. Biosys. 2010; cited from earlier work
[6] = Turbidometry, inverse temperature transition (Tt); type: physicochemical; details: midpoint of turbidity at 800 nm
Procedure: The turbidometry, or inverse temperature transition (Tt), was determined via UV-Vis Spectrophotometer Cary-50 (Agilent Technology) equipped with TC 125 temperature controller (Quantum Northwest) in Type 21 quartz cuvette with 10 mm path length (Buck Science) by monitoring the change in turbidity at 800 nm from 25° C. to 80° C. at a rate of 1° C./min. Protein stock solutions for Tt measurement were prepared in 0.2 mg/mL (or 14.3 μM and 14.4 μM for CE1-His6 and E1C-His6, respectively) in 10 mM sodium phosphate buffer, pH 8.0. In order to bring Tt value of all the samples into instrument operation range, highly concentrated NaCl solution was added prior to Tt measurement (Table 1). Measurements were performed on at least two different protein sample preps to calculate the average Tt. The Tt was determined at the midpoint of the normalized turbidity.

[7] = Curcumin release over time; type: physicochemical; details: by 8.25 hrs, room temperature, 50 mM phosphate buffer pH 7.4
Procedure: Release of curcumin from CE1-His6, E1C-His6, CE1-His6•GNP and E1C-His6•GNP was then investigated. Curcumin (26 nmol) was added to 200 μL of 26 μM (5.2 nmol) protein sample. After 2 hours of incubation at room temperature, the solution was adjusted to contain a final concentration of 0.5 M NaCl. The protein polymer•curcumin complex (in the presence or absence of GNP) were incubated at 45° C. (well above the TO for 30 min and centrifuged to separate protein polymer•curcumin complex from excess curcumin. The pellets were resuspended in 200 μL of 50 mM phosphate buffer, pH 7.4 and kept at room temperature in the dark for release. After 10 min, the suspensions were centrifuged and the supernatant was removed and used for extraction assessment of released curcumin. This resuspension-incubation-spin-release cycle was repeated for the next eight hours at the following time points: 10, 25, 55, 85, 135, 195, 255, 315 and 495 min. Release study was performed on two different protein sample preparations to obtain the averaged release profile. Error bars on the release data represented standard error of the two sample preparations.

With COc1cc(/C=C/C(=O)CC(=O)/C=C/c2ccc(O)c(OC)c2)ccc1O [curcumin] the “curcumin uptake visualized by fluorescence (FITC channel)” value (“curcumin uptake visualized” for short) [1] was “did not show any uptake”, the “Abs. (MTS Assay)” value ([2]; 4 Hour Treatment, listed as CCM1) was 2.039 ± 0.00 and 1.999 ± 0.05 and the “Abs. (MTS Assay)” value ([2]; 4 Hour Treatment, listed as CCM2) was 2.044 ± 0.01 and 2.025 ± 0.02. For the same molecule, the “Abs. (MTS Assay)” value ([2]; 24 Hour Treatment, listed as CCM1) was 1.974 ± 0.01 and 2.034 ± 0.02 and the “Abs. (MTS Assay)” value ([2]; 24 Hour Treatment, listed as CCM2) was 1.98 ± 0.04 and 1.999 ± 0.01.

B1: CE1-His6: protein diblock polymer with N-terminal hexahistidine tag, COMPcc coiled-coil C domain then elastin-like E1 domain (SEQ ID NO: 13) (protein)
chain: MRGSHHHHHHGSACELAATATATATATATAACGDLAPQMLRELQETNAALQDVRELLRQQVKEITFLKNTVMESDASGLQAATATATATATATAVDKPIAASAVPGVGVPGVGVPGFGVPGVGVPGVGVPLEGSGTGAKLN
In the case of B1, the “CCM/P molar binding ratio” value [3] is given as 0.40 ± 0.06, the “cytotoxicity (MTS assays)” value [4] is given as “neither the protein polymer nor P•G NPs s exhibited cytotoxicity” and the “Size of protein particles” value [5] is given as 26.0 ± 3.0^a nm. The Tt ([6]; 0.1621 mg/mL protein, 0.946M NaCl) was 55.0 ± 0.8 °C, the “release of free curcumin” value [7] was 77.0% and the “curcumin uptake visualized” value [1] was “uptake albeit substantially less than the P•G NPs”.

B2: E1C-His6: protein diblock polymer with N-terminal hexahistidine tag, elastin-like E1 domain then COMPcc coiled-coil C domain (SEQ ID NO: 14) (protein)
chain: MRGSHHHHHHGSKPIAASAVPGVGVPGVGVPGFGVPGVGVPGVGVPLEGSELAATATATATATATAACGDLAPQMLRELQETNAALQDVRELLRQQVKEITFLKNTVMESDASGLQAATATATATATATAVDLQPS
For B2, the “CCM/P molar binding ratio” value [3] is listed as 0.41 ± 0.10, the “cytotoxicity (MTS assays)” value [4] is listed as “neither the protein polymer nor P•G NPs s exhibited cytotoxicity” and the “Size of protein particles” value [5] is listed as 27.9 ± 3.7^a nm. The Tt ([6]; 0.1818 mg/mL protein, 0.45M NaCl) was 33.8 ± 2.2 °C, the “release of free curcumin” value [7] was 78.8% and the “curcumin uptake visualized” value [1] was “uptake albeit substantially less than the P•G NPs”.
